IntAct's records for PubMed 18776901

B1: Non-catalytic caspase homolog csp-3 (Caenorhabditis elegans), G5ECW5 (parent)
chain: MFFGKLGGFAFFLQRAVRCDGFIDNFFDRIPKFFQFMKSKFPSHQTSSSQADLLVSFSTSPGFLSFKDETKDTWYIQELYRVIIENAKDTHLADLLTETNRRVVEKYEADKVVFVCKQAPEFWSRFTKQLFFMSRNDVF
partner: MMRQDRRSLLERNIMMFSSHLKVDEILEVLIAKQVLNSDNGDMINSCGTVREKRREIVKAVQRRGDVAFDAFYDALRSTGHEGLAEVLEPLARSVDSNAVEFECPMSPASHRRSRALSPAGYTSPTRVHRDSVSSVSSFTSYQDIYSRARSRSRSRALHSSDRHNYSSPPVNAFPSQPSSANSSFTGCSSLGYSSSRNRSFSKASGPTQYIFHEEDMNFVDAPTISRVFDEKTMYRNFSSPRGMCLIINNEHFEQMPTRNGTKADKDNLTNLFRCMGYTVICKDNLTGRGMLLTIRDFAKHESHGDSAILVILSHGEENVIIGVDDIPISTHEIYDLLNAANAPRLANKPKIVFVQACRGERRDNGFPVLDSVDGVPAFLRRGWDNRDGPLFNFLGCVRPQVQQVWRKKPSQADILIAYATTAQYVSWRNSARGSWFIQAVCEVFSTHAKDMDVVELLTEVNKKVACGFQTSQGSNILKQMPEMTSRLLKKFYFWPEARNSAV

Variants of: B1
Details: with ced3_caeel ced-3, P42573

effect of a mutation on the interaction	Variant
decreasing interaction	F57D

Variants of: B1
Details: with ced3_caeel ced-3, P42573
Remark: another data set of the same source

effect of a mutation on the interaction	Variant
decreasing interaction strength	F57D
